Results from publication PMC1934993 (Nucleic Acids Research, 2007).

Target: the molecule itself
Assay: crystal structure

B1: C-terminally truncated Saccharomyces cerevisiae tyrosyl-tRNA synthetase (SceTyrRS, residues 1-364) (enzyme, UniProt P36421 1-364, looked up)
chain: MSSAATVDPNEAFGLITKNLQEVLNPQIIKDVLEVQKRHLKLYWGTAPTGRPHCGYFVPMTKLADFLKAGCEVTVLLADLHAFLDNMKAPLEVVNYRAKYYELTIKAILRSINVPIEKLKFVVGSSYQLTPDYTMDIFRLSNIVSQNDAKRAGADVVKQVANPLLSGLIYPLMQALDEQFLDVDCQFGGVDQRKIFVLAEENLPSLGYKKRAHLMNPMVPGLAQGGKMSASDPNSKIDLLEEPKQVKKKINSAFCSPGNVEENGLLSFVQYVIAPIQELKFGTNHFEFFIDRPEKFGGPITYKSFEEMKLAFKEEKLSPPDLKIGVADAINELLEPIRQEFANNKEFQEASEKGYPVATPQKSK
stoichiometry N: 2
